From PMC6889415, “Global redox proteome and phosphoproteome analysis reveals redox switch in Akt” (Nature Communications, 2019)

Legend:
[1] = biological target: the molecule itself; experiment: non-reducing SDS-PAGE with immunoblot; adipocytes treated with BCNU or BCNU/AF for 2 or 24 h; washed and scraped in PBS with 100 mM NEM, 1% SDS; non-reducing SDS-PAGE, immunoblot; dimer/monomer ratio measured
[2] = biological target: T1, peroxiredoxin 2 (mouse (endogenous in 3T3-L1 adipocytes)), Q61171; experiment: as above; conditions: remark: other sources report otherwise
T1 chain: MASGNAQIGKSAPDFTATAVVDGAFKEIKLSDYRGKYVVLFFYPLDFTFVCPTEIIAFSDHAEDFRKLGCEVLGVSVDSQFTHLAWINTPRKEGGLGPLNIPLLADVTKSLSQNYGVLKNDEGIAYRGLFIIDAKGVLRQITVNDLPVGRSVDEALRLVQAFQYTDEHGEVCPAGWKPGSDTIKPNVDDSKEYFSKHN

| Binder | stoichiometry N [1] | stoichiometry N [2] |
| --- | --- | --- |
| peroxiredoxin 3 (natural protein, mouse (endogenous in 3T3-L1 adipocytes), UniProt P20108 63-257, looked up, peroxiredoxin 3 (Prdx3), mitochondrial, endogenous in 3T3-L1 adipocytes, detected with anti-PRDX3; The dimer seen on the non-reducing gel is held by a disulfide bond formed on oxidation; also called Prdx3; PRDX3; source: endogenous, 3T3-L1 adipocyte lysate) TPAVTQHAPYFKGTAVVNGEFKELSLDDFKGKYLVLFFYPLDFTFVCPTEIVAFSDKANEFHDVNCEVVAVSVDSHFSHLAWINTPRKNGGLGHMNITLLSDITKQISRDYGVLLESAGIALRGLFIIDPNGVVKHLSVNDLPVGRSVEETLRLVKAFQFVETHGEVCPANWTPESPTIKPSPTASKEYFEKVHQ | 2 | – |
| peroxiredoxin 2, Q61171 1-198 (natural protein) MASGNAQIGKSAPDFTATAVVDGAFKEIKLSDYRGKYVVLFFYPLDFTFVCPTEIIAFSDHAEDFRKLGCEVLGVSVDSQFTHLAWINTPRKEGGLGPLNIPLLADVTKSLSQNYGVLKNDEGIAYRGLFIIDAKGVLRQITVNDLPVGRSVDEALRLVQAFQYTDEHGEVCPAGWKPGSDTIKPNVDDSKEYFSKHN | – | 2 |
